Results on six substances are retold here after patent US20250320281A1.

Holding throughout (experiment): cell-based or functional assay
Experiment [1] addresses HIV-1 93UG077 envelope glycoprotein (Env) on pseudovirus (HIV-1).
Experiment [2] deals with HIV-1 94UG103 envelope glycoprotein (Env) on pseudovirus (HIV-1).
In experiment [3] the target is HIV-1 Env of isolate 92UG005 (clade D pseudovirus) (HIV-1).
The target in experiment [4] is HIV-1 Env of isolate 93IN905 (HIV-1).
For experiment [5], the target named is HIV-1 Env of isolate MGRM-D-002 (clade D pseudovirus) (HIV-1).
Experiment [6] has as its target HIV-1 Env of isolate MGRM-D-018 (clade D pseudovirus) (HIV-1).
In experiment [7] the target is HIV-1 Env of isolate MGRM-D-026 (clade D pseudovirus) (HIV-1).
Experiment [8] deals with HIV-1 Env of isolate THR0.18 (Acute), clade B, on pseudovirus (HIV-1).
In experiment [9] the target is HIV-1 Env of pseudovirus MGRM-AE-008 (clade CRF01_AE) (HIV-1).
The target of experiment [10] is HIV-1 Env of pseudovirus MGRM-AG-012 (clade CRF_AG) (HIV-1).
Experiment [11] deals with HIV-1 Env of pseudovirus MGRM-Chronic-B-011 (HIV-1).
The target of experiment [12] is HIV-1 Env of pseudovirus MGRM-Chronic-B-012 (HIV-1).
Experiment [13] addresses HIV-1 Env of pseudovirus MGRM-Chronic-B-023 (HIV-1).
The target of experiment [14] is HIV-1 Env of pseudovirus MGRM-F1-008 (HIV-1).
Experiment [15] deals with HIV-1 Env of pseudovirus MGRM-F1-016 (HIV-1).
In experiment [16] the target is HIV-1 Env of pseudovirus MGRM-G-001 (clade G) (HIV-1).
Experiment [17] has as its target HIV-1 Env of pseudovirus MGRM-G-006 (clade G) (HIV-1).
Experiment [18] deals with HIV-1 envelope glycoprotein (Env) of isolate 94UG103, clade A (HIV-1).
Experiment [19] addresses HIV-1 envelope glycoprotein (Env) of isolate MGRM-A-006, clade A (HIV-1).

1443_C16 (PG16) (TCN-116) (antibody), sequence (VH): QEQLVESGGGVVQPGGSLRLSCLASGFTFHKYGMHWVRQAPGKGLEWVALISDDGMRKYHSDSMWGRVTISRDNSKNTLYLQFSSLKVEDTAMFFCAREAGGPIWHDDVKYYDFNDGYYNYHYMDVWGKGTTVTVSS
1443_C16 (PG16) (TCN-116) (antibody), sequence (VL): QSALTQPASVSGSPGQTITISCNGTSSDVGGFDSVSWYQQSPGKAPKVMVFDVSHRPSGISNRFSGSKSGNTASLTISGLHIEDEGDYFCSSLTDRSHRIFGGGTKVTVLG

As to 2F5 (antibody), the IC50, pseudovirus neutralization in experiment [1] was 4.45 µg/mL; in [2] it was 3.79 µg/mL. In addition, the IC50 (µg/ml), pseudovirus neutralization is 8.61 µg/mL in [3]; 24.6 µg/mL in experiment [5]; 4.05 µg/mL in experiment [6]; 4.37 µg/mL in experiment [7]; over 50 µg/mL in [8]; 0.81 µg/mL in [11]. The IC50 (µg/ml), pseudovirus neutralization came out at 17.6 µg/mL in [12]; 0.1 µg/mL in experiment [13]; 1.61 µg/mL in [14]; 21.5 µg/mL in experiment [15]; 1.92 µg/mL in [18]; 15.7 µg/mL in [19]. The IC50 in [4] was over 50 µg/mL; in experiment [9] it was over 50 µg/mL; in experiment [10], 0.33 µg/mL; in experiment [16] it was 4.1 µg/mL; in [17] it was 1.33 µg/mL.

As to 2G12 (antibody), the IC50, pseudovirus neutralization in [1] and in experiment [2] was over 50 µg/mL throughout. Further, the IC50 (µg/ml), pseudovirus neutralization was over 50 µg/mL in experiment [3]; over 50 µg/mL in [5]; 0.12 µg/mL in [6]; over 50 µg/mL in [7]; over 50 µg/mL in experiment [8]; over 50 µg/mL in experiment [11]. For the same substance, the IC50 (µg/ml), pseudovirus neutralization in experiment [12] was 0.22 µg/mL; in experiment [13], 0.16 µg/mL; in experiment [14] it was over 50 µg/mL; in [15], over 50 µg/mL; in experiment [18], 48.1 µg/mL; in experiment [19], 13.8 µg/mL. The IC50 in [4] was over 50 µg/mL; in experiment [9], over 50 µg/mL; in experiment [10], 1.94 µg/mL; in experiment [16], over 50 µg/mL; in [17], over 50 µg/mL.

Take 4E10 (antibody): the results for the IC50, pseudovirus neutralization in experiment [1] and in [2] were 11.2 µg/mL and 9.7 µg/mL, respectively. In addition, the IC50 (µg/ml), pseudovirus neutralization came out at 7.46 µg/mL in experiment [3]; 9.44 µg/mL in experiment [5]; 3.9 µg/mL in [6]; 2.95 µg/mL in experiment [7]; 4.68 µg/mL in experiment [8]; 1.07 µg/mL in experiment [11]. Besides, the IC50 (µg/ml), pseudovirus neutralization worked out at 48 µg/mL in experiment [12]; 27.9 µg/mL in [13]; 2.75 µg/mL in experiment [14]; 7.61 µg/mL in experiment [15]; 4.97 µg/mL in experiment [18]; 9.87 µg/mL in experiment [19]. Besides, the IC50 in [4] turned out to be 1.26 µg/mL; in experiment [9], 0.94 µg/mL; in [10] it was 0.86 µg/mL; in experiment [16], 2.04 µg/mL; in experiment [17], 1.23 µg/mL.

As for 1443_C16 (PG16) (TCN-116) (antibody), the IC50, pseudovirus neutralization is over 50 µg/mL in experiment [1] and 0.008 µg/mL in experiment [2]. In addition, the IC50 (µg/ml), pseudovirus neutralization in [3] is over 50 µg/mL; in experiment [5] it was 0.01 µg/mL; in [6], 0.004 µg/mL; in experiment [7], over 50 µg/mL; in experiment [8], 1.34 µg/mL; in [11], over 50 µg/mL. For the same substance, the IC50 (µg/ml), pseudovirus neutralization is 3.74 µg/mL in [12]; 0.13 µg/mL in experiment [13]; over 50 µg/mL in [14]; 1.12 µg/mL in experiment [15]; 0.04 µg/mL in experiment [18]; over 50 µg/mL in experiment [19]. For the same substance, the IC50 in experiment [4] turned out to be 0.25 µg/mL; in experiment [9], 3.25 µg/mL; in experiment [10], 25.1 µg/mL; in [16] it was 0.15 µg/mL; in experiment [17], 2.42 µg/mL.

With 1495_C14 (PGC14) (antibody), the IC50, pseudovirus neutralization in experiment [1] and in experiment [2] was over 50 µg/mL each time. In addition, the IC50 (µg/ml), pseudovirus neutralization in [3] is over 50 µg/mL; in experiment [5], 29 µg/mL; in experiment [6] it was over 50 µg/mL; in experiment [7], over 50 µg/mL; in experiment [8] it was over 50 µg/mL; in [11], over 50 µg/mL. The IC50 (µg/ml), pseudovirus neutralization in experiment [12], in [13], in [14], in [15], in [18] and in experiment [19] was over 50 µg/mL each time. Besides, the IC50 was 19 µg/mL in experiment [4]; over 50 µg/mL in [9]; over 50 µg/mL in experiment [10]; over 50 µg/mL in [16]; over 50 µg/mL in experiment [17].

In the case of b12 (antibody), the figures for the IC50, pseudovirus neutralization in [1] and in [2] were 41.1 µg/mL and 3.54 µg/mL, respectively. Besides, the IC50 (µg/ml), pseudovirus neutralization in [3] was over 50 µg/mL; in experiment [5] it was over 50 µg/mL; in experiment [6], 1.39 µg/mL; in experiment [7], 1.55 µg/mL; in experiment [8], 3.62 µg/mL; in [11], 2.11 µg/mL. Further, the IC50 (µg/ml), pseudovirus neutralization in [12] is over 50 µg/mL; in [13], over 50 µg/mL; in experiment [14], over 50 µg/mL; in experiment [15], over 50 µg/mL; in experiment [18], 6.92 µg/mL; in [19] it was 13.6 µg/mL. The IC50 in experiment [4] was 21.4 µg/mL; in [9], over 50 µg/mL; in experiment [10], 10.4 µg/mL; in [16] it was over 50 µg/mL; in experiment [17], over 50 µg/mL.
